Assays:
[1] = 14C assay with IPTG-induced recombinant E. coli cells: 14CO2 captured from [14C]-carboxyl-labeled dicamba; conditions: for Enzymatic Detection level: dicamba decarboxylation activity of the protein of the given SEQ ID NO, High / Low / No; for Dicamba Decarboxylase Activity: induced recombinant E. coli cells, [14C]-carboxyl-labeled dicamba, 14CO2 capture
[2] = Saturation mutagenesis of SEQ ID NO:109: dicamba decarboxylation activity of point mutants (carbon dioxide released); conditions: decarboxylation activity (carbon dioxide released) of point mutant compared with unmutated backbone protein; backbone SEQ ID NO: 109

Molecule | Enzymatic Detection level [1] | Dicamba Decarboxylase Activity [1] | Fold Activity [2]
59 (protein, alpha proteobacterium) MAPSVIDAHAHFLPGSLVTALRSRSDAPDIRTDSNGGESFGIYRTRMPYGRTYDALDVRLARMDELGVDRQILSLPGLFGIDSRPVSQALPLVRAFNDGVADLVRKHPDRFSGIAALPLADLDAAQEEYRRARGDLGLSGLILPGDTFVSVAAAERVRPLFELAATIGGLIFVHPGPLPDETGSAVDAPAPHTDSVVHRRVTVDIQNRMTEVMVTLALTDFLAPYPSVPVQVANLGGSLPFVIERMDHVYALRNPEAPPPSLSLRSLYVDAASLGPRAIALAAEVYGADRVLFGSDYPIFDDGRCLDAVRQTRLSPDARALIAGGNAARMLTQT | No | No | 0.9
70 (protein, listed as Alicyclobacillus acidocaldarius) MAIEPNRAADVHTHFLPTEVLEFLKREPRIQVDLERRAPDKEPFLTVEGRWSFELKRMFVDFEAFASAYRQAGIGLALVSPLPQLFVYHLPAEMGAQVAEVYNDALRDVLAPHRERFRPLATLPLADPTAAARELERRMDEGFVGAIVGPGVGEALIGDEAFWPLWEVADARRAVLFLHPLLHADPRAARLMLPNLVGVPWETTLAAAHLVLSGLLDRYPGARVLLAHGGGFLPYQIGRIEQGYDVWPQVRGRLQDRPTAYLRRMFYDNVLWSDAALRCLIDVVGADRVLAGSDFPFDLSAWPPRPGADVSVLAGGSGREGRLS | Low | Low | 1.7
73 (protein, listed as Sphaerobacter thermophilus) MARIDAHAHAQPPEYLDALLASGRYESVRDAEGRIVVRERGSRFLTITPQMHHPEQRVAEMDEAGIDMQILSVTTPQVYFLQGQAAVDLARRCNDYLADIVRSYPTRFRALASVPLTADPDAAVREFVRCLDDLGMVGAIIGSNIDGRPIDDPAFDAFYAEADRRATTLFIHPMVPAGIEVMNPYALAPLVGFMFDTTLAVSRLIFSGFFERYPRVKVLVGHLGAAVPYLAGRLDIGWRSYSDCQGIPHPPTEYIRRLYLDTVSFHAPALRCALETVGPDRIVFGSDYPHVIGDVGGAIASIQQALPATTHDGVLGHTAAELFGVSA | Low | Low | 1.2
74 (protein, listed as Ramlibacter tataouinensis) MATVIDVHTHMFTTKWLELLKKEGGQYNIQTRPDGQQEIFRGNTPVVIPQKGHFDWKLRIQHMDQAGIDVSVVSLTCPNVYWGGEDVSVRAAREANDNVAQAQTAYPDRIRWFASLPWEYMATVIDVHTHMFTTKWLELLKKEGGQYNIQTRPDGQQEIFRGNTPVVIPQKGHFDWKLRIQHMDQAGIDVSVVSLTCPNVYWGGEDVSVRAAREANDNVAQAQTAYPDRIRWFASLPWEYPQRAVEELERSCAQGAAGVMVLANVAGRSLTDPLFAPVWAEIDRRALPVLVHPTDPPGVDLMDMTKFDLSWSVGFMFDTTLAITRMIFEGFFDRYPNLRIIASHGGGTLPYLVGRFEKGDEVELASRRQMKRKPTDYLRHIHYDCITYNLGALQYLISVVGAGQVMFGTDWPHWVHDTRGAFANTAQLPQEQTRAVRGANAQRLFKL | Low | Low | 1.4
61 (protein, listed as Gordonia amarae) MATGAGSGVPSPADRVIVRSPGVIDVHAHAVLPMSLGCAGAAGPEIGYREDGSPFFRVGEYVLNGVRYEGSAFMDPEVRVAAMDAAGIGLQMISPNPITYFTRLDARSATDYARAHNDAIAEAAGRHPGRLVGAAQLPMQDVPAAIAELERSVRELGLVAAYIDTDIGDRTLDAPELDDFYSAAVELDVPVFIHPSPVGQEGPPDDTRLRRFDLDLLLGFSYDETLAVAALVFGGVLERHPALDVCLSHGGGTLAFVAGRFARAVAKPRAWVPEFLVENGIESYLRRLWLDTHVHSAGSLRLLIDTVGTDRLVFGTNFAGWDADGATEVDALGDLRETTTANAAHLLRLGRA | No | No | 2.4
60 (protein, listed as Catenulispora acidiphila) MARGFVRTAVVPGFWDAGWRGAGQPGGMRVDVHAHLFPAAYLDLLDDFRQDGGVGTREVRALGGGDGERELRLRLAAMDAVGVDVQLLSTCPQGPYTGDPTAAVEAARCANVALAQTVAQYPERLRALAALPLPHILASVDELNRAMEQDGMLGAAVGTSILGRPLSHPDFEPLFAALNRRKGVLFVHPIGESAGSPLMQASKLDRVIGYAAEVSTAILQLFQAGLTVKYPDIRIIAPHMGGYLPFLIQRLDRHRDWYLPKDAPSAGQLMRGIAYDTANPLPAALRLTAEVVGPERLLLGTDYPFEQGPSLRDHIEYILAAGLPEAQAKMIVDVNAADFLDMRSGAEQPPV | No | No | 1.6
72 (protein, Cupriavidus necator) MADCPCCVSPKRRRLLGSVSAIAAGMMAGLPALAAQPSTAAAGTGKPLSIDIHAHYYSESFLGLLGGEGKQFGGHFFRNDDSFTFQTPAGGLGPLPMKFIDVEQRVRDMDNSGVDVQAISLSVPMVYWADRTLNAKLARAWNTAASDVHRKHPTRFVVLATLPMLNANDAIDELEFAAGLPGVRGIYMGTNINNRDLDDPLFSPIFKRIEQLNLPIFLHPQQTVGGARLADFYLSNLLGNPFDTAIAASHLILGGVLDKYPALHFSLPHAGGALPILVGRIDAGWSMRSETKRVAQKPSSYLRRFSYDTISHSGPTLDFLIRNIGADRLVLGSDYCFDMGYEQPVRFLDRLALPDDQKRMVVGGNAARLLNL | Low | Low | 1.2
69 (protein, listed as Microbacterium testaceum) MATSTEGQDVTDVHAHLLMPGLHAEVERRVPDEVQAAADLELRRNGLASLQASGRMIGERFPRLTDVRARLAAMDEQGVDRQWVSPSPNHFYPWANEGLATWASGEANRLIAEHVALAPDRLVGLGVVPLQHPHLVVDALDDAVLGRGLAGVEISSFAGDVELSDERLESFWARAAELRAVVFLHPFGCSLDERLDRFYLSNTVGQPTENAVALSHLIFSGVLDRHPGLRLIAAHGGGYLPTAIGRSDRAWRVRPEARGCAHAPSTYLSKLWFDTVVHDERALRWLVEAAGADRVLLGSDFPFDMGLDDPVAFVRGAGLQDAEVSGILGGNAAELLRTRVHA | No | No | 1.3
64 (protein, listed as Achromobacter piechaudii) MAIQKIDMHAHFFPPITRQEAAALDPVNAPWLRPDADGATGQIMAGEREFRPVDATLWDPALRIEQMDRHGVDVQILCATPIMFGYTYPARPAADWAARMNDLALEHCAYAPSRLKALAQVPLQDLELACQEASRARAAGHLGVQIGNHVGPRDLDDETLVQFLIHCANNDIPVLVHPWDMMTDGRMKKWMLPWLVSMPAETQLGILSLILSGAFERIPRSLKLCFAHGGGSFAYLLGRVDNAWRHRDIIRQDCPQLPSSYTDRFYTDSAVFDPRSLRLLIDVMGEDRVLLGSDYPYPLGEQEVGRLVAHAELVPEVQQKILFRNTMTFFGLQPGLQPGLQS | Low | Low | 1.8
3 (protein, listed as Lactobacillus plantarum) MAKLITVEEHFESAAVTAAMRQAVGNAVLPAVSPALRQYMRDNLPSPAIMQDTQHERLAFMAQYGIDMQVLSYGNSSPQNLSPEQAVPLSQLANDELAKAVVAHPDRYAGLAVLPVGDPQAAVAELNRAVTTLGLRGVLLKGNYQNKFFDEPFFLPIFEAAAALDVPVYFHPSFIPQAVTSHYFESNQWSDVVTGILSSAGYGWHMDVGIQVIRMIASGIFDKLPGLKLISGHWGELVPLFLERLDDELTTYTDLQYPFSTYYRHNVYVTPSGILSAPQLQFMLAEMGADHLMYSIDYPYKQPETSGSFLDIADLTDEQRAQIAFGTATTLFKL | Low | Low | 0.9
68 (protein, listed as Hoeflea phototrophica) MAIIDAHTHTLCPAVNEKVAGTIKPDSVPYQRDMSPESKEQDHTQFPELKIMFNQVERRLADMARMGIDRQVIAPAPGQQHYWAEPKLLAEISALQNDHVAELVARAPDRFAGIGTLPMTDPDAAVAEITRATRELGLRVFQIDSRVMERELSDASLDPIYAALEAAGAGLMIHPLGFSNGERLTPFFMVNSVAQPLEELLAFNHLVFGGVLDRFPKLKVYIAHGGGFAPFYIGRFDHAWKVRPEVNRLTPSAPSTYLRRIYFDTCVYRTDHIETLVRTVGADRVMLGSDYPFDMGDTDPLGLLNACQGLSDDEKATISSKVAIDFFGLET | No | No | 1.3
62 (protein, Bacillus thuringiensis serovar pulsiensis) MAVGGKNFRDVTDQVWCPKKRIEDMDREGVDIQVLSPIPVTFSYWAKPEEAESMARIQNDFIAETVLAYPDRFVGLGTVPMQDGETAIREMERCITELNLHGIEIGTNVNGKNLDDPSFIEFFRMAEKWQVPIFIHPWETLGRDRMPHHNFMYTVGMPSETALAAATLIWSGIMEKFPRLKVCFAHGGGSFPYILPRLDQGWKVWPHLRLTTHPPSYYAKKFYFDSLNYDPINLKYMIERFGHEKIFMGSDYPFLLREVDPGKVIDETASLSEEQKAAMLGGNAAEFLNIDIKKRGVAYAESTNT | No | No | 1
71 (protein, listed as Burkholderia dolosa) MARAGHRAARTRQSRPGDRTMTCSCCMSAGRRRVLGAFAALAGAPKGPRAASAAQPAAASKPTRGDATARNRHSRALLPGKASASWSATKASGSGGAFAWDDTTFTFRTPAGGLGPLPMKFIDVDARLRDMDASGVDVQALSLSVPMAYWGDRPFNAKLARAWNTAASRVHVRAPDRFVVLATLPMLDATDAIDELERASELPGVRGVYMGTNIDNRDLDDPRFAPVFARIEQLGLPVFLHPQQTVGGARLGDFYLSNLLGNPFDTAIAASHLILGGVLDRHPALHFTLPHAGGALPILVGRLDAGWTVRAETRRLAHQPSGYLRRFSYDTVSHSGPVLNFLIENVGIDRLVLGSDYCFDMGYEQPVRFLDRLDLTPDERAMVIGGNAGRLLRI | Low | Low | 1.5
